Measured values published in patent US20180306791A1 (GlaxoSmithKline, published 2018).

Columns and labels:
BCMA [1] = target: T1, BCMA (human, UniProt Q02223 1-184); experiment: flow cytometry of CD138+ cells of patient GSK085; number in the title of panel III
T1 construct: whole, on cells; Endogenous on human cell lines and patient cells, or from plasmid pCDNA3.1 hBCMA in ARH-77 cells; also called CD269; TNFRSF17
T1 sequence (looked up): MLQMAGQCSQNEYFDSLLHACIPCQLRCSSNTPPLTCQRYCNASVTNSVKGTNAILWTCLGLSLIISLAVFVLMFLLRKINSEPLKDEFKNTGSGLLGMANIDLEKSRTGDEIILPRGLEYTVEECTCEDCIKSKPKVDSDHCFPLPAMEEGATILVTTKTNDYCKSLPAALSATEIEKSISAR
Experimental: (§1) FIG. 14: J6M0-MMAF activity on primary CD138+ cells. (A) BM MNCs from one representative patient (GSK 087) with moderate BCMA expression incubated with J6M0-MMAF. Viable CD138+ cells (percentage of control) after 2 and 6 days (left panel) obtained by analyzing CD138+ cells by flow cytometry and gating CD138+ fraction (middle panel) onto AnnexinV/PI dot-plot (right panel). (B) Four representative experiments showing viable CD138+ cells after culture of BM MNCs from myeloma patients with concentrations of J6M0-MMAF at varying time points. For each patient, histogram showing binding of J6M0-wtFc PE to CD138+ cells (black) compared to cells pre-incubated with Fc block as control (white) and where available IHC staining with MIB1 (pink, nuclear) and CD138 (membrane, brown) as a measure of plasma cell proliferation.
(§2) For assessment of surface BCMA expression, murine anti-BCMA (clone 5307118G03, conjugated to AlexaFluor488), and the humanised antibody, J6M0-wtFc conjugated to PE were used in parallel. In the case of primary MM cells, staining was carried out on bone marrow (BM) mononuclear cells (MNCs) in 100μl PBS (Lonza)/0.5% BSA(PAA), using anti CD138 APC (Miltenyi), to identify tumour cells. […] A semi-quantitative measure of BCMA surface expression on MM cells was obtained from the ratio of the MFI of anti BCMA, versus isotype control stained samples (MFI ratio).

BCMA [2] = target: T1, BCMA; experiment: flow cytometry of CD138+ cells of patient GSK087; number in the title of panel IV
Experimental: as §1, §2

BCMA [3] = target: T1, BCMA; experiment: flow cytometry of CD138+ cells of patient GSK048; number in the title of panel II
Experimental: as §1, §2

BCMA [4] = target: T1, BCMA; experiment: flow cytometry, CD138+ gated bone marrow cells of patient GSK072 (group LOW); ratio of MFI to IgG2a-488 control
BCMA [5] = target: T1, BCMA; experiment: flow cytometry inset, high BCMA-transduced (HIGH) ARH77 cells; ratio to isotype control
BCMA [6] = target: T1, BCMA; experiment: flow cytometry inset, non-transduced (NT) ARH77 cells with negligible surface BCMA; ratio to isotype control
BCMA [7] = target: T1, BCMA; experiment: flow cytometry inset, low BCMA-transduced (LOW) ARH77 cells; ratio to isotype control
BCMA [8] = target: T1, BCMA; experiment: flow cytometry, CD138+ gated bone marrow cells of patient GSK045 (group MODERATE); ratio of MFI to IgG2a-488 control
BCMA [9] = target: T1, BCMA; experiment: flow cytometry, CD138+ gated bone marrow cells of patient GSK034 (group MODERATE); ratio of MFI to IgG2a-488 control
BCMA [10] = target: T1, BCMA; experiment: flow cytometry, CD138+ gated bone marrow cells of patient GSK064 (group LOW); ratio of MFI to IgG2a-488 control
BCMA [11] = target: T1, BCMA; experiment: flow cytometry on JJN3 cells (printed JIN3 on the sheet; group MODERATE); ratio of MFI to isotype IgG2a-488
BCMA [12] = target: T1, BCMA; experiment: flow cytometry, CD138+ gated bone marrow cells of patient GSK050 (group MODERATE); ratio of MFI to IgG2a-488 control
BCMA [13] = target: T1, BCMA; experiment: flow cytometry on RPMI8226 cells (printed RPM18226; group LOW); ratio of MFI to isotype IgG2a-488
BCMA [14] = target: T1, BCMA; experiment: flow cytometry, CD138+ gated bone marrow cells of patient GSK039 (group HIGH); ratio of MFI to IgG2a-488 control
BCMA [15] = target: T1, BCMA; experiment: flow cytometry on H929 cells (sheet group HIGH); ratio of MFI of BCMA stained to isotype IgG2a-488 stained cells
BCMA [16] = target: T1, BCMA; experiment: flow cytometry on SUPT1 cells (non-MM line, sheet group NEGATIVE for BCMA); ratio of MFI to isotype IgG2a-488; reflects absence of the target on these cells
BCMA [17] = target: T1, BCMA; experiment: flow cytometry on Daudi cells (non-MM line; group LOW); ratio of MFI to isotype IgG2a-488
BCMA [18] = target: T1, BCMA; experiment: flow cytometry on MM1.s cells (sheet group MODERATE); ratio of MFI to isotype IgG2a-488
BCMA [19] = target: T1, BCMA; experiment: flow cytometry on OPM2 cells (sheet group MODERATE); ratio of MFI to isotype IgG2a-488
BCMA [20] = target: T1, BCMA; experiment: flow cytometry, CD138+ gated bone marrow cells of patient GSK048 (group HIGH); ratio of MFI to IgG2a-488 control
BCMA [21] = target: T1, BCMA; experiment: flow cytometry on U266 cells (sheet group MODERATE); ratio of MFI to isotype IgG2a-488
BCMA [22] = target: T1, BCMA; experiment: flow cytometry on KMM1 cells (sheet group NEGATIVE, text: low BCMA expression); ratio of MFI to isotype IgG2a-488; reflects the low level of the target on these cells
BCMA [23] = target: T1, BCMA; experiment: flow cytometry on Raji cells (non-MM line, sheet group NEGATIVE for BCMA); ratio of MFI to isotype IgG2a-488; reflects absence of the target on these cells
BCMA [24] = target: T1, BCMA; experiment: flow cytometry on JIM3 cells (sheet group MODERATE); ratio of MFI to isotype IgG2a-488

B1: J6M0-wtFc (antibody, IgG1, V domains shown)
VH: QVQLVQSGAEVKKPGSSVKVSCKASGGTFSNYWMHWVRQAPGQGLEWMGATYRGHSDTYYNQKFKGRVTITADKSTSTAYMELSSLRSEDTAVYYCARGAIYDGYDVLDNWGQGTLVTVSS
VL: DIQMTQSPSSLSASVGDRVTITCSASQDISNYLNWYQQKPGKAPKLLIYYTSNLHSGVPSRFSGSGSGTDFTLTISSLQPEDFATYYCQQYRKLPWTFGQGTKLEIKR
notes: PE-conjugated for flow cytometry; no sentence says it outright; also called J6M0-wtFc PE; wild type Fc form of J6M0
- MFI ratio (BCMA [1]): 3.65
- MFI ratio (BCMA [2]): 7
- MFI ratio (BCMA [3]): 16.7

B2: S307118G03 (antibody, from another filing, mouse IgG2a, V domains shown)
VH: EVQLQQSGPELVKPGASVKISCKASGYTFTDYYMKWVKQSHGKSLEWIGEIYPNNGGITYNQKFKGKATLTVDKSSSTAYMELRSLTSEDSAVYYCANGYEFVYWGQGTLVTVSA
VL: DIQMTQTASSLSASLGDRVTISCSASQGISNYLNWYQQKPDGTVKLLIYYTSSLHSGVPSRFSGSGSGTDYSLTISNLEPEDIATYYCQQYSKLPWTFGGGTKLEIKR
- MFIr (BCMA [4]): 2
- MFIr (BCMA [5]): 54.8
- MFIr (BCMA [6]): 1.8
- MFIr (BCMA [7]): 16.6
- MFIr (BCMA [8]): 3.8
- MFIr (BCMA [9]): 4.8
- MFIr (BCMA [10]): 2.5
- MFIr (BCMA [11]): 4.6
- MFIr (BCMA [12]): 6
- MFIr (BCMA [13]): 2
- MFIr (BCMA [14]): 11.2
- MFIr (BCMA [15]): 15.3
- MFIr (BCMA [16]): 1
- MFIr (BCMA [17]): 2.9
- MFIr (BCMA [18]): 6.8
- MFIr (BCMA [19]): 4.5
- MFIr (BCMA [20]): 11.2
- MFIr (BCMA [21]): 5.8
- MFIr (BCMA [22]): 1.1
- MFIr (BCMA [23]): 1.2
- MFIr (BCMA [24]): 5.7
